Experimental data reported in the supplement of paper PMC9112550, “Optimization of the antimicrobial peptide Bac7 by deep mutational scanning” (BMC Biology, 2022).

tested on: Escherichia coli TOP10; test: shrunken log2 fold change of peptide-encoding DNA abundance (4.5 h post-induction vs induction); higher = less antimicrobial activity (less host growth inhibition); details: time post-induction: 4.5 h; library: site-saturation at positions 5, 18, 19, 20
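Also: peptides expressed intracellularly from a pBAD plasmid library in pooled LB shake-flask culture, induced with 0.3% L-arabinose, DNA abundance read by NGS, three biological replicates, DESeq2 with apeglm shrinkage.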

Point of comparison: RRIRLRPPRLPRPRPRPKAAPRP, “shrunken log2 fold change” value 0.679. Against it:
- RRIRARPPRLPRPRPRPWREPRP — lower, -0.0619
- RRIRWRPPRLPRPRPRPFADPRP — within 0.2 log units, 0.737
- RRIRFRPPRLPRPRPRPWQWPRP — lower, 0.00967
- RRIRERPPRLPRPRPRPKLAPRP — lower, 0.00329
- RRIRTRPPRLPRPRPRPMWWPRP — lower, -0.0168
- RRIRGRPPRLPRPRPRPWKSPRP — lower, -0.207
- RRIRFRPPRLPRPRPRPHDLPRP — lower, -0.203
- RRIRCRPPRLPRPRPRPWKCPRP — lower, -0.0193
- RRIRRRPPRLPRPRPRPTNMPRP — lower, -0.0659
- RRIRHRPPRLPRPRPRPKELPRP — lower, -0.00676
- RRIRDRPPRLPRPRPRPCHIPRP — lower, -0.251
- RRIRVRPPRLPRPRPRPERGPRP — lower, 0.416
- RRIRDRPPRLPRPRPRPESWPRP — higher, 1.58
- RRIRGRPPRLPRPRPRPCPCPRP — lower, -0.0469
- RRIRYRPPRLPRPRPRPNFYPRP — lower, -0.689
- RRIRKRPPRLPRPRPRPMMLPRP — lower, -0.0136
- RRIRCRPPRLPRPRPRPFIAPRP — lower, -0.613
- RRIRMRPPRLPRPRPRPDGGPRP — lower, 0.135
- RRIRNRPPRLPRPRPRPHSVPRP — lower, -0.015
- RRIRARPPRLPRPRPRPFQWPRP — lower, -0.0629
- RRIRFRPPRLPRPRPRPPYRPRP — lower, 0.0239
- RRIRYRPPRLPRPRPRPKIQPRP — lower, -0.68
- RRIRERPPRLPRPRPRPMKYPRP — lower, 0.0847
- RRIRARPPRLPRPRPRPVIVPRP — lower, 0.142
- RRIRDRPPRLPRPRPRPGCLPRP — within 0.2 log units, 0.589
- RRIRIRPPRLPRPRPRPDKMPRP — lower, -0.473
- RRIRHRPPRLPRPRPRPYLKPRP — lower, -0.298
- RRIRTRPPRLPRPRPRPGIVPRP — lower, -0.184
- RRIRSRPPRLPRPRPRPQCQPRP — lower, -0.146
- RRIRYRPPRLPRPRPRPLKRPRP — lower, -0.234
- RRIRWRPPRLPRPRPRPITEPRP — lower, -0.355
- RRIRRRPPRLPRPRPRPNDAPRP — lower, -0.0546
- RRIRWRPPRLPRPRPRPGFNPRP — lower, 0.00388
- RRIRTRPPRLPRPRPRPCGYPRP — lower, -0.0816
- RRIRARPPRLPRPRPRPAHHPRP — lower, 0.123
- RRIRDRPPRLPRPRPRPHKAPRP — lower, -0.0142
- RRIRARPPRLPRPRPRPPICPRP — lower, -0.0154
- RRIRGRPPRLPRPRPRPMLGPRP — higher, 1.19
- RRIRERPPRLPRPRPRPAGNPRP — lower, -0.0376
- RRIRGRPPRLPRPRPRPVCWPRP — higher, 1.16
- RRIRKRPPRLPRPRPRPCLCPRP — lower, -0.138
- RRIRYRPPRLPRPRPRPAGRPRP — lower, 0.104
- RRIRVRPPRLPRPRPRPKANPRP — lower, 0.103
- RRIRPRPPRLPRPRPRPPYTPRP — lower, -0.232
- RRIRDRPPRLPRPRPRPQFFPRP — lower, -0.00144
- RRIRHRPPRLPRPRPRPHFIPRP — lower, -0.499
- RRIRLRPPRLPRPRPRPLMCPRP — lower, -0.422
- RRIRIRPPRLPRPRPRPQCSPRP — lower, -0.46
- RRIRCRPPRLPRPRPRPTGTPRP — lower, 0.0453
- RRIRVRPPRLPRPRPRPKHMPRP — lower, -0.518
- RRIRDRPPRLPRPRPRPLDEPRP — lower, 0.034
- RRIRVRPPRLPRPRPRPKFQPRP — lower, -0.274
- RRIRYRPPRLPRPRPRPLDHPRP — lower, -0.119
- RRIRRRPPRLPRPRPRPLPHPRP — within 0.2 log units, 0.485
- RRIRRRPPRLPRPRPRPYELPRP — lower, -0.297
- RRIRQRPPRLPRPRPRPAQDPRP — lower, 0.226
- RRIRWRPPRLPRPRPRPMNLPRP — lower, -0.063
- RRIRPRPPRLPRPRPRPFDCPRP — lower, -0.52
- RRIRQRPPRLPRPRPRPCPSPRP — lower, 0.0332
- RRIRSRPPRLPRPRPRPYHPPRP — lower, -0.00174
- RRIRERPPRLPRPRPRPTYVPRP — lower, -0.132
- RRIRHRPPRLPRPRPRPPMYPRP — lower, -0.739
- RRIRMRPPRLPRPRPRPPFVPRP — lower, 0.267
- RRIRCRPPRLPRPRPRPWNFPRP — lower, -0.182
- RRIRTRPPRLPRPRPRPHKLPRP — lower, -0.236
- RRIRCRPPRLPRPRPRPMGGPRP — lower, 0.145
- RRIRIRPPRLPRPRPRPFELPRP — lower, -0.138
- RRIRHRPPRLPRPRPRPKNDPRP — lower, -0.268
- RRIRFRPPRLPRPRPRPVFGPRP — lower, -0.17
- RRIRDRPPRLPRPRPRPLKPPRP — lower, -0.00274
- RRIRVRPPRLPRPRPRPELIPRP — lower, 0.0562
- RRIRARPPRLPRPRPRPDEAPRP — higher, 1.12
- RRIRTRPPRLPRPRPRPAAIPRP — lower, 0.163
- RRIRGRPPRLPRPRPRPATCPRP — within 0.2 log units, 0.512
